To fix the notation:
T1: His-tagged human HVEM (human, UniProt Q92956 39-202)
T1 construct: extracellular domain; also called His-tagged HVEM (Acro Biosystems); HVEM extracellular domain peptide; not shown: His tag
T1 sequence (looked up): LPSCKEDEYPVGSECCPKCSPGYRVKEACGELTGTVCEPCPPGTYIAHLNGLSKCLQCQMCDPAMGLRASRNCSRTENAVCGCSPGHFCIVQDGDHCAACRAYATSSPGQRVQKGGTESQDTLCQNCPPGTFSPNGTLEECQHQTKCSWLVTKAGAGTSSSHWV

T2: HVEM on HVEM-positive melanoma cells (UniProt Q92956 39-283, limits assumed)
T2 sequence (looked up): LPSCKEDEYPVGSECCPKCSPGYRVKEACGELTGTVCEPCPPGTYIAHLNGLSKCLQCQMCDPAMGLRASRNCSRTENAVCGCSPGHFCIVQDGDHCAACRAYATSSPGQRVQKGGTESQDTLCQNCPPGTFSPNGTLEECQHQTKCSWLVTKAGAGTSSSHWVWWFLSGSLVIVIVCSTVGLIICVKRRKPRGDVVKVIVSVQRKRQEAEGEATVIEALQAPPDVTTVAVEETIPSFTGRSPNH

B1: H4 (antibody, human IgG4 S228P, kappa, V domains shown)
VH: QVQLVQSGGGLVQPGGSLRLSCAASGFTFSSYAMSWVRQAPGKGLEWVSNIYSNPNRTYYADSVEGRFTISRDNSKNTLYLQMNSLRAEDTAVYYCAKAPGDYTAYFDYWGQGTLVTVSS
VL: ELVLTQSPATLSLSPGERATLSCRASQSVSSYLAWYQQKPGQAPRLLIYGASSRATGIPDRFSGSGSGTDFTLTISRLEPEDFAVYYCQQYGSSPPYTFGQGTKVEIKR
modifications: N-linked glycosylation site (NXS/T; NRT) in CDR-H2 found to be glycosylated in the final antibody (FIG. 1)
notes: also called H4-CDR2; H4 antibody
B2: L18-H5 (antibody, human IgG4 S228P, kappa, V domains shown)
VH: B1 VH with Y52N, S53G, N54P, P55G, R57G
VL: ELVLTQSPATLSLSPGERATLSCRASQSVSSYLAWYQQKPGQAPRLLIYGASSRATGIPDRFSGSGSGTDFTLTISRLEPEDFAVYYCQQYGSYPPLTFGQGTKVEIKR
notes: combination of the L18 light chain and the H5 heavy chain; also called L18 (CDR3)-H5 (CDR2)
B3: L18-H4 (antibody, human IgG4 S228P, kappa, V domains shown)
VH: B1 VH
VL: B2 VL
notes: combination of the L18 light chain and the H4 heavy chain; also called L18 (CDR3)-H4 (CDR2)
B4: H4-N55G (antibody, human IgG4 S228P, kappa, V domains shown)
VH: B1 VH with N56G
VL: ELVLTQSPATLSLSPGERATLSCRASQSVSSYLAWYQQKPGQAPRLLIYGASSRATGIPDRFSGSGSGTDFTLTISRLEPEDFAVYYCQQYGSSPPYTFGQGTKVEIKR
notes: H4 variant without the CDR-H2 glycosylation site; also called H4-N55G-CDR2
B5: H4-N55D (antibody, human IgG4 S228P, kappa, V domains shown)
VH: B1 VH with N56D
VL: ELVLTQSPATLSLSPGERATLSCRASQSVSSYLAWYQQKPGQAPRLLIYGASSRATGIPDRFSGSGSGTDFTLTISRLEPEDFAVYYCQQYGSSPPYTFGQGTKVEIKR
notes: H4 variant without the CDR-H2 glycosylation site; also called H4-N55D-CDR2
B6: H4-N55E (antibody, human IgG4 S228P, kappa, V domains shown)
VH: B1 VH with N56E
VL: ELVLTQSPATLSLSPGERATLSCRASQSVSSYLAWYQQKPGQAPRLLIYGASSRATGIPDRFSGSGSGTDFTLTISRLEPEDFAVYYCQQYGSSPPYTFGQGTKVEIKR
notes: H4 variant without the CDR-H2 glycosylation site; also called H4-N55E-CDR2
B7: H4-T57E (antibody, human IgG4 S228P, kappa, V domains shown)
VH: B1 VH with T58E
VL: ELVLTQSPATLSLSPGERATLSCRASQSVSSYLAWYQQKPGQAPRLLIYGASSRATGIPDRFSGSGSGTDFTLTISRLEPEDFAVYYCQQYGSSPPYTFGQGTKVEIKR
notes: H4 variant without the CDR-H2 glycosylation site; also called H4-T57E-CDR2
B8: H5 (antibody, human IgG4 S228P, kappa, V domains shown)
VH: B1 VH with Y52N, S53G, N54P, P55G, R57G
VL: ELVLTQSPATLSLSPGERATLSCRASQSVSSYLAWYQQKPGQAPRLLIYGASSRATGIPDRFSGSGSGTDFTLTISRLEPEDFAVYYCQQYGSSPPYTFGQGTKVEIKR
notes: also called H5-CDR2
B9: H4-N55Q (antibody, human IgG4 S228P, kappa, V domains shown)
VH: B1 VH with N56Q
VL: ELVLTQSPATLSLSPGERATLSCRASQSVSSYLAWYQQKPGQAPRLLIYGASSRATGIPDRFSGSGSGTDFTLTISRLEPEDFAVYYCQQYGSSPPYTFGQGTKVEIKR
notes: H4 variant without the CDR-H2 glycosylation site; also called H4-N55Q-CDR2
B10: H8 (antibody, human IgG4 S228P, kappa, V domains shown)
VH: B1 VH with N50A, Y52G, S53G, N54S, P55G, N56S, R57G, E65K
VL: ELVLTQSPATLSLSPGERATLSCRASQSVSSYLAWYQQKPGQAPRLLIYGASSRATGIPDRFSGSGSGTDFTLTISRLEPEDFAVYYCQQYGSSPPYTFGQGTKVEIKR
notes: also called H8-CDR2
B11: H4-N55S (antibody, human IgG4 S228P, kappa, V domains shown)
VH: B1 VH with N56S
VL: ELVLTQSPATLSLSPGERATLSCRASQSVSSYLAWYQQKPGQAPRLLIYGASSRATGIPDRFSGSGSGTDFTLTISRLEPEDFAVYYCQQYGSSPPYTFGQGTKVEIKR
notes: H4 variant without the CDR-H2 glycosylation site; also called H4-N55S-CDR2
B12: H6 (antibody, human IgG4 S228P, kappa, V domains shown)
VH: B1 VH with N50G, Y52N, S53G, P55G, N56D, R57Y, E65K
VL: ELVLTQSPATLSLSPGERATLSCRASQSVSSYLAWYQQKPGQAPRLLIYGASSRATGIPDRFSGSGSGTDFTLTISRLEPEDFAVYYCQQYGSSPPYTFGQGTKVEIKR
notes: also called H6-CDR2
B13: Par-K64E (antibody, human IgG4 S228P, kappa, V domains shown)
VH: B1 VH with N50A, Y52S, S53G, N54S, P55G, N56G, R57S
VL: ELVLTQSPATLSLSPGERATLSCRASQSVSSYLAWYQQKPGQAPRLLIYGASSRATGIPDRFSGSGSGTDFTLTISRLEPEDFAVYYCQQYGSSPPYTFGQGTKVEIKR
notes: also called Parental-K64E-VH-CDR2; Par-K64E antibody
B14: H4-T57A (antibody, human IgG4 S228P, kappa, V domains shown)
VH: B1 VH with T58A
VL: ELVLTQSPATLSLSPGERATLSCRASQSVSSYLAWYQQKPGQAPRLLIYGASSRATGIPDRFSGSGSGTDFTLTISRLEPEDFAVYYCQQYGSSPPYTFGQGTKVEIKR
notes: H4 variant without the CDR-H2 glycosylation site; also called T57A antibody; T57A variant
B15: L18 (antibody, human IgG4 S228P, kappa, V domains shown)
VH: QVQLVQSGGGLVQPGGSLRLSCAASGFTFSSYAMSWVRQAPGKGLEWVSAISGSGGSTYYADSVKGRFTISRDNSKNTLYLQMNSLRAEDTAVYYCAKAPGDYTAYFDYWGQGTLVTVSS
VL: B2 VL
notes: also called L18 (CDR3)
B16: H4-E64K (antibody, human IgG4 S228P, kappa, V domains shown)
VH: B1 VH with E65K
VL: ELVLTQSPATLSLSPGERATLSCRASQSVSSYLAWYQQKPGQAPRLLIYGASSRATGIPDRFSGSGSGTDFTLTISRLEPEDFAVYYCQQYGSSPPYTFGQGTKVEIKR
notes: also called H4-E64K-CDR2
B17: H4-T57N (antibody, human IgG4 S228P, kappa, V domains shown)
VH: B1 VH with T58N
VL: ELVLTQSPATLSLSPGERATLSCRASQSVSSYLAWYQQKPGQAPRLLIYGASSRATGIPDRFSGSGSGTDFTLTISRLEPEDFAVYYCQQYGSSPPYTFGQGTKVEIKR
notes: H4 variant without the CDR-H2 glycosylation site; also called H4-T57N-CDR2
B18: H4-T57G (antibody, human IgG4 S228P, kappa, V domains shown)
VH: B1 VH with T58G
VL: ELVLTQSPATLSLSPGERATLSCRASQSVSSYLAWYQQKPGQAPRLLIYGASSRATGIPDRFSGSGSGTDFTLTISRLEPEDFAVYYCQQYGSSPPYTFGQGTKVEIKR
notes: H4 variant without the CDR-H2 glycosylation site; also called H4-T57G-CDR2
B19: human recombinant HVEM (hHVEM) (receptor, UniProt Q92956 39-202, looked up)
chain: T1 sequence (looked up)
notes: Recombinant protein coated at 2.5 ug/ml; also called recombinant hHVEM; hHVEM coated plates

Positions count from the first letter of the chain named. Names may count otherwise.

T3 sequence (O43557 59-240 limits assumed): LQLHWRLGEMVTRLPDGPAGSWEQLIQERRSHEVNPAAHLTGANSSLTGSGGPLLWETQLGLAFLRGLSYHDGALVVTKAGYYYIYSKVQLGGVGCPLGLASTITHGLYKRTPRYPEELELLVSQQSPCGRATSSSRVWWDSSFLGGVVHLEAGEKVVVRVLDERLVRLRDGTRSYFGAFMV

The first assay deals with T1, His-tagged human HVEM. The assay is described as follows: Biacore KD to HVEM extracellular domain, IgG captured on Protein A, His-tagged HVEM as analyte; reference: Parental. As to the method:
Affinity maturation: To improve binding affinity, the parental antibody was affinity matured using phage display. Heavy and/or light chain CDRs of variable domain regions were semi-randomized using oligonucleotide mutagenesis. Selections were performed using separate heavy and light chain phage libraries and decreasing concentrations of biotinylated His-tagged HVEM target to select the highest affinity binders from each library. Following four rounds of selections individual clones were screened as scFv supematants in a binding ELISA to identify lead candidates with signals greater than the parental scFv expressed in the same assay. Identified hits were converted into IgG and cloned into mammalian expression vectors. Plasmids encoding the affinity improved variants paired with the appropriate parental heavy or light chain, as well as the parental antibody, were transiently transfected small scale into HEK EBNA adherent cells (LGC Standards, Teddington, UK). At five days post-transfection, the supernatants were harvested, quantified by Octet (serial no. FB-30203) and analysed by Biacore single cycle kinetics.
(§1) Single Cycle Kinetics: To assess the binding of the affinity matured IgGs, single cycle kinetic analysis was performed on supernatants using a Biacore T200 (serial no. 1909913). Kinetic experiments were performed at 25° C. running Biacore T200 Control software V2.0.1 and Evaluation software V3.0 (Cytiva, Marlborough, USA). Antibodies were diluted in HBS-P+(Cytiva, Marlborough, USA) containing 1 mg/ml BSA to a final concentration of 1.0 μg/ml. Antibodies were loaded onto Fc2, Fc3 and Fc4 of the Protein A capture Sensor chip (Cytiva, Marlborough, USA). IgGs were captured at a flow rate of 10 μl/min to give an immobilisation level (RL) of ˜50 RU. The surface was then allowed to stabilize. Single cycle kinetics data was obtained using His-tagged HVEM (Acro Biosystems, Newark, USA) as the analyte at a flow rate of 40 μl/min. A two-fold dilution range from […] to 100 nM His-tagged antigen without regeneration between each concentration was used.
Consider B1, for which the “Fold improvement vs parental (KD)” value was found to be 9.57 fold.
Same read-out and setting: next, B2: 1.51 fold; B3: 2.57 fold.
As to B4, the “Fold improvement vs parental (KD)” value was determined as 4.29 fold.
Still for that read-out and setting: under B5 stands 3.93 fold; under B6, 2.73 fold; under B7, 2.4 fold.
Same read-out and setting: under B8 stands 5.05 fold; under B9, 2.59 fold.
In the case of B10, the “Fold improvement vs parental (KD)” value came out at 1.3 fold.
The same measure, in the same setting: next, B11: 2.67 fold.
As to B12, the “Fold improvement vs parental (KD)” value is 1.53 fold.
Same read-out and setting: under B13 stands 3.14 fold.
On to B14, for which the “Fold improvement vs parental (KD)” value was 20.7 fold.
Same read-out and setting: next, B15: 1 fold; B16: 2.15 fold.
Same read-out and setting: under B17 stands 23.5 fold; under B18, 6.24 fold.

The target of another assay is B19. The assay is described as follows: blocking ELISA: antibody titrated on plate-bound hHVEM in the presence of hBTLA, bound hBTLA detected (OD); the IC50 column has no unit, µg/ml is the unit of the x axis.
Consider B14, for which the IC50 turned out to be 0.53 µg/mL.

A further assay concerns the target T3, hLIGHT-His (human, UniProt O43557 59-240).
T3 construct: Named only as hLIGHT-His; also called recombinant hLIGHT; not shown: exact limits of the vendor construct
The assay is described as follows: ELISA, plate coated with hHVEM, antibody 10 µg/ml present, hLIGHT-His 2.5 µg/ml, detection with anti-LIGHT.
In the case of B19, the binding result is “binds”.

Another assay concerns the target T1, His-tagged human HVEM. The assay is described as follows: Biacore T200 single-cycle kinetics, antibody supernatant captured on Protein A, His-tagged HVEM as analyte; reference: Parental. As to the method: as §1
(§2) First a multicycle kinetics Biacore affinity assay was performed to confirm the improved binding of the H4, T57A, T57G and T57N antibodies (FIG. 3A). Each purified antibody was captured to a Protein A sensor chip before increasing concentrations of antigen (hHVEM) were injected. The fold improvement in affinity was calculated by dividing the average KD of the parent antibody by the average KD for each variant antibody. […] A single-cycle kinetic Biacore assay was also performed with the H4 N55G, H4 N55S, H4 N55D, H4 N55Q, H4 N55E, and H4 T57E antibodies (FIG. 3B).
As to B4, the “Fold improvement (KD parent / KD variant)” value was 4.29 fold.
Still for that read-out and setting: under B5 stands 3.93 fold; under B6, 2.73 fold.
Same read-out and setting: next, B7: 2.4 fold; B9: 2.59 fold; B11: 2.67 fold.

The next assay deals with T1, His-tagged human HVEM. The assay is described as follows: Biacore 8K multi-cycle kinetics, purified antibody captured on Protein A, His-tagged human HVEM as analyte, 25 C. As to the method: (§3) Multi-Cycle Kinetics: Multicycle kinetic analysis was performed on purified antibodies. Kinetic experiments were performed at 25° C. on a Biacore 8K. HBS-P+0.1% BSA (Cytiva, Marlborough, USA) was used as running buffer. Purified antibodies were diluted to 1.0 μg/mL in running buffer and at the start of each cycle, loaded onto Fc2, Fc3 and Fc4 of a Protein A sensor chip (Cytiva, Marlborough, USA). Antibodies were captured at a flow rate of 10 μl/min to give an immobilisation level (RL) of ˜ 100 RU. The surface was then allowed to stabilise. Multi-cycle kinetic data was obtained using His-tagged human HVEM as the analyte injected at a flow rate of 50 μl/min. A eight point, two-fold dilution range from 0.78 nM to 100 nM of antigen were prepared in running buffer. For each concentration, the association phases were monitored for 180 seconds and the dissociation phase was measured for 300 seconds. Regeneration of the sensor chip surface was conducted between cycles using two injections of 10 mM Glycine-HCl, pH 1.5.
as §2
B1 displayed a Kd of 4.65 nM.
Still for that read-out and setting: next, B14: 2.17 nM.
Still for that read-out and setting: under B17 stands 1.94 nM; under B18, 7.27 nM.

The target of a further assay is T2, HVEM on HVEM-positive melanoma cells. The assay is described as follows: cell-based or functional assay.
On to B14, for which the “increase in specific killing events (Caspase 3/7) in melanoma cells cocultured with autologous TILs, as compared to the isotype control, after nine hours” value turned out to be 19%.
The same measure, in the same setting: next, B17: 9%; B18: 19%.

Another assay concerns the target T1, His-tagged human HVEM. The assay is described as follows: Biacore T200 single-cycle kinetics, antibody supernatant captured on Protein A, His-tagged HVEM as analyte, 25 C. As to the method: as §1, §2
B4 came in with a dissociation constant Kd of 13.1 nM.
Same read-out and setting: next, B5: 14.3 nM; B6: 20.6 nM.
For the molecule B7, the equilibrium dissociation constant (Kd) was 23.4 nM.
Still for that read-out and setting: next, B9: 21.7 nM.
Still for that read-out and setting: under B11 stands 21 nM.

In a further assay the target is T1, His-tagged human HVEM. The assay is described as follows: Biacore 8K multi-cycle kinetics, purified antibody captured on Protein A, His-tagged human HVEM as analyte; reference: Parental. As to the method: as §3, §2
Take B1: the “Fold improvement (KD parent / KD variant)” value was 14 fold.
Take B14: the “Fold improvement (KD parent / KD variant)” value came out at 30.1 fold.
As to B17, the “Fold improvement (KD parent / KD variant)” value was found to be 33.6 fold.
On the same count and under the same terms, next, B18: 8.97 fold.

The record behind these values is US20240067742A1 (4C BIOMED, published 2024).
